Measurements from US5990275.

Columns and labels:
[1] = target: CC49/212 single-chain Fv
[2] = target: TAG-72 antigen on a human breast carcinoma extract (human); assay: competition RIA against 125I-labeled CC49 IgG, human breast carcinoma extract

## subtilisin BPN' (Type XXVII protease, Sigma) (from UniProt P00782) (enzyme)
[1]
  half-life (t1/2) of intact sFv, reverse phase HPLC: 2.05 h

## trypsin (enzyme)
[1]
  half-life (t1/2) of intact sFv, reverse phase HPLC: 3.26 h

## CC49/218 single-chain Fv (scFv)
[2]
  fold lower affinity than the CC49/212 sFv: 4 fold
